Source: the domain aggregation screens of Martell et al. (2025)

Experiment: soluble fraction after stress (log2 fold change); higher = more stays soluble; pooled small domains, quantitative proteomics
Conditions: stress: 75 degC
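Note: 20 min heating vs room temperature control held 20 min.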

Going from “HMSAEAYLSFVKKENLRAAVVNYENNKEWLKDVPHERLLDLAVFAKVDMGEPGMSMKFNNWLLSR” to “HMSAEKDGEWLTLTEAAKHLQVSPHVIRRLIQTGALPAEQVMRGAPHQIRAADLDTDRVKTMIAR”, the “soluble fraction (log2)” value rises from -0.934 to 0.133.

Compared with “HMSAEKPVKSELFYKSMLNSFEQAVRFMIANGILEDFKSRIVAINNETNHQNWFNKQEFNAIIERF”, “HMSAERFDFRIGPELAGKRFDQALAEALPQFSRSRLSTWIKDGRATLNGATMRPKDSVHAGDTVVVNAE” is higher in “soluble fraction (log2)” value: -1.49 for the first, -0.186 for the second.

Compared with “HMSAEVEVPDVVGRQVALAVQLIETKKLRVNVAETYDAKVPPGQVISQSPEAGMKVKEERVITIYVSR”, “HMSAGISVADVTNRTYDEGYNTLTAQHLLVNKVYEANETIPLDTIIRTDPVAGTKVPDNTSITVYVSSGK” is higher in “soluble fraction (log2)” value: -1.36 for the first, 0.382 for the second.

Going from “HMSAGPQGRTPREDELTVGTKVYVSRVGASGVVSSDVSRGKVVVQVGALRLTAAVSELLLLDG” to “HMSAGYTYQNYQQDLKSGNVQNIHIYLSEEMYSGNVKVIYKNNKSVTFTVTDVTIAEAEARQVGISPIIYE”, the “soluble fraction (log2)” value falls from -1.21 to -2.38.

“HMSAHDLQVVLRWIGTDEPMTDQRYRITTEDGRTFEGRTDDAGLTERVASTIPFGRYSIEALD” and “HMSAIEIDAEKILNYLTDRGGKMPYGDTTAPEVIKDKFNISKAAFKRALGFLLRSNKIEQIDGWTYI” are within 0.2 log units of each other in “soluble fraction (log2)” value: -0.278 for the first, -0.433 for the second.

Going from “HMSAIKSVTTQLDNTKLRTGPDVSYQYTQSYPANTKLTYINKSGTWYQVKDADGNTGYVASWVVTPSE” to “HMSALIGAHTLERIDSRDFEGVVMAWLPKRDGYDSLYKIYHIEDGDFEELDDREVQAAISLFIEGT”, the “soluble fraction (log2)” value falls from 0.586 to -0.381.

Going from “HMSAPAMTLDSIRSLLNDRDPWVVTQTVEWLVGLGPQVKTILETLTLESSDAARQAQNALDRINVRNYP” to “HMSAPNPGQMHSWTDTQGRTLQATFIKADATTVTLNWNGRIVPIPLANLNAASQKLARELASAS”, the “soluble fraction (log2)” value rises from -0.796 to -0.443.

“HMSAPRRGETTAASLNLRAGPATDADILAQLPERTPLRVLQEDGEWLRVETHGNEGFVHRQFVAIPGDEP” and “HMSARRHAVKHLDANQLQTRVARMLSEFGLTAKVSKDPNSNALIIDGAPEAQRIAAQLITTIDKE” are within 0.2 log units of each other in “soluble fraction (log2)” value: 0.0338 for the first, 0.0709 for the second.

“HMSASSDATRQRVLRAAEQLFGAKGVENVSLREMTTLAGVNLAAVNYHFGSKDALAEAVFEALSER” and “HMSASSEALKTAVRKVLLNNRMTQDRMARDAGLSGSALSQWLHGKYQGDVPALEGRLAAWLADTQAS” are within 0.2 log units of each other in “soluble fraction (log2)” value: 0.253 for the first, 0.0606 for the second.

Compared with “HMSASSTAPGSVTLRGAILTAWTAAGGERSKMGLPVGYEVRQADGTVTQTFEKGRISVSPTGTATI”, “HMSAVNLNDDEKAVYKSIKSGIRSLDELSLRTGMKIYELMAITVSLEMKGLVTKSPDGTLDAT” is lower in “soluble fraction (log2)” value: 0.0449 for the first, -0.743 for the second.

Going from “HMSDAKKRAFSKDEILYSLKNRPFTSFDIESLFDDESKKTFIGLLDKGEISEKKVAGTIFYYLR” to “HMSDEEAISKLPGVGPAILEKLKEAGYNDIMTIAVDSPKNLAELAEIGEPTAAKIIAAAKKAAD”, the “soluble fraction (log2)” value rises from -0.817 to 0.113.

“HMSDIDIDVENDRAALAIAGGKLNHLVGARGEVLDALQELTRLAVQTSLGERSRLMLDIDNFRSD” and “HMSDIHARIAAALAALTSPEKIHDLVVDDDGKVSFTFHLTREDPATLVRDARKAVQAVDGVRDVKVNVVDP” are within 0.2 log units of each other in “soluble fraction (log2)” value: 0.185 for the first, 0.134 for the second.

“HMSDKEDIDKYLLTYGDLLFNRTNSSEWVGKTAIYRGEVSAIYAGYLIRIRSFLDAEYLNSVMNSKYA” and “HMSDKTSLTDDDKALINSMLPDYDKYPSVAKLQAVEIAKSSSKMATLLMLDERYNETVSEALE” are within 0.2 log units of each other in “soluble fraction (log2)” value: 0.1 for the first, 0.152 for the second.

Going from “HMSDLGEIEKIVDEVLAENITKVQEYKDGKKGLMGMFMGQIMKKSGGKADPKIANQLLTEKL” to “HMSDNHYLLEIFLADLKSDEKFIRELAIFQLHHHIESDKVRAELKAAAETESDPYLKGMIESLLSSTS”, the “soluble fraction (log2)” value falls from 0.11 to -1.53.

“HMSDNYYSILGIETDATTDMIKRAYRRLSLELHPDRTKDNPILTEKYKKVNEAYGVLNDNDRKHIYDLQNI” and “HMSDPELAIPRVVGLSGNDAQAALVKAGFSAVTVVTVKNSEVTSEQVTHVVPAEGAKAKASTPVTVVVSSS” are within 0.2 log units of each other in “soluble fraction (log2)” value: -0.109 for the first, -0.205 for the second.

“HMSDRQLKRQANILYTTRKLASKVGYDGLTMRGLAEASEVSPKTLYNLFSSKDELLAAALEDLVGIV” and “HMSDTFTITTESGRIDKIITAHETTHTRSQVQKWLQDGLVTVNGNPVKANFKVTAGDVVTVTIPEVK” are the same in “soluble fraction (log2)” value: 0.0601 for the first, 0.0601 for the second.

Going from “HMSDTMTVTNVKYAIYLRSTPSEASDANIIMEIPVGSKVTYLDTPNNTFYKISYGGTVGYSKQIYLTF” to “HMSDVLPEAILERRLVKKGNRAVPQVLIKWTKLPATSATWEDFYVLQQRFPTALAWGQAPSPGGQM”, the “soluble fraction (log2)” value rises from -3.69 to -0.462.

Compared with “HMSDVTPDVVRALRKRLKLTQVQFGEIFGMTSKKVSAWEHGKAEPTEEQKQKIQSLLKENNEQ”, “HMSEATTVNYKYAVTISDLRIRKGPGTNYGSVGYTGKGVFTIVAEKGGWGKLKSGAGWISLNSKYGHKVS” is lower in “soluble fraction (log2)” value: -0.146 for the first, -2.03 for the second.

Compared with “HMSEEAMVSNFRQQEILELARKDGKVTVDGLAELYDVTVQTIRRDLSDLADSGRLKRVHGGAVVPS”, “HMSEFGENLKKLRTARDLTQQELGAKVGLSKAVVSKYENGLGYPTFDVLIRIAAYFGVTTDYLLGV” is lower in “soluble fraction (log2)” value: 0.162 for the first, -2.81 for the second.

With “HMSEFSDRFRLLKDESGATLKELSEQLDITVPNLSYYMKGREPSYDILIKIADYFGVTTDWLIGRTDER” the “soluble fraction (log2)” value was -1.18.
